Results as given in the DeepSol protein solubility set.

Assay: soluble on expression in E. coli; label from the status in PepcDB or PDB records

Sequence | soluble on expression in E. coli
KIDDGTELKLKGEKLRYVSRGGLKLEKALAVFNLSVEDMITIDIGASTGGFTDVMLQNGAKLVYAVDVGTNQLVWKLRQDDRVRSMEQYNFRYAEPVDFTEGLPSFASIDVSFISLNLILPALAKILVDGGQVVALVKPQFEAGREQIGKNGIVRESSIHEKVLETVTAFAVDYGFSVKGLDFSPIQGGHGN | not soluble
KITGLLDGDRVIVFDKNGISKLSARHYGNVEGNFLSLSLVEALYLINLGWLEVKYKDNKPLSFEELYEYARNVEERLCLKYLVYKDLRTRGYIVKTGLKYGADFRLYERGANIDKEHSVYLVKVFPEDSSFLLSELTGFVRVAHSVRKKLLIAIVDADGDIVYYNMTYVKP | soluble
KLKARSIKIQRRMDAILLRMPIFGDIVRKGTIARWGRTTATLIAAGVPLVDVLDSTAGAAGNLIYEEATREIRTRVIQGLSMTSGMRATELFPNMMLQMSSIGEESGSLDDMLNKAAEFYEDEVDNAVGRLSAMMEP | not soluble
KNFHVVLEAAWLVRDVKTADDAIGVAISEAGKRLNPKLDFVEVDVGTTSCPVCGEPFSSVFIAANTALVGLIFEMKVFDAESAEHAERIAKSVIGKSLRDVP | not soluble
KPAPSAEHSYAEGEGLVKVFDNAPAEFTIFAVDTKGVARTDGGDPFEVAINGPDGLVVDAKVTDNNDGTYGVVYDAPVEGNYNVNVTLRGNPIKNMPIDVKCIEGANGEDSSFGSFTFTVAAKNKKGEVKTYGGDKFEVSITGPAEEITLDAIDNQDGTYTAAYSLVGNGRFSTGVKLNGKHIEGSPFKQVLGNPGKKNPEVKSFTTTRTAN | soluble
KQNSLMGITGGLTARYISEKYFAMICGAQVELNISQRGWDELFEVPGENGEPVEDPTRKYTRKMTYLDIPFLAHLAFGNEKGLQFFINAGPQIGLLIGESESMENIDMNALTDTQKAVYGDKIQNKFDYGIAGGGGIEFRTKKAGSFLLEGRYYFALSDFYSTTKKDYFSRAAHGTITVKLTYLFDLK | not soluble
KQVENYDSWEDLVSSIDTIERKDDGTLEIYLTWKNGAISHHPSTITNKKCPQKMLQFYESHLTFRENE | soluble
KSTVEKSTVGQKVAIVREDTGTIAELAEKALGNMVDIVYAGSDLKEAEEAVKKEKAPAIIVIPKGFSQSLESGEKARLEIVWYLRGTGLSEAVSTGTISSLIESLKVQLASFLLNDPKKAQLLFDPLEIVQHTYLRGSLFKNHSPEAIMNVFYSQN | soluble
KTIAIIGAGIVGVSTAIWLQRDGHQVVLIDRAGPAEGTSYGNGGVLASCSIVPVTTPGLIAKAPRMLFSPNEPLFLRWGYLPRLAPWLLRYLRRANARDATQTAAAMAPIVGDSLADHLALAQGTGAEKWVVPSDYLFIYNDRAHFQGDAFGWNLRRQNGFVWDEMEAEEFRGYDPIFSSDLRFAVRLKDHGRITDPGQYVKDLAAHVVASGGQLIQADVEDIARENGRVTGVRAGGRTIPCDAAVIATGVWSGPLARKLGLEVPLEAERGYHIEFWNPNFMPKSPVMVAARKFVATPMEGRLRLAGVVEFGGLDAGPSRAPIELLKRSAAAVFPGLKADEVTEWLGHRPAPADSIPVIGELPHLKGAFTGFGHHHVGLTGGPKTGRILAQLIAGRQPNIDL | not soluble
KVQSTFAKYSRVRSMTGMTGAEAAKRLLNSQGIYDVQVRKVAGNLTDHYDPRNKTLNLSESVYDSPSVAAIGVAAHECGHAIQDNTEYAPLKIRGAIVPVVNIGTQLSWPM | not soluble
KVWDRAVDFLAANESRVRTETRRIGGADFLVWRWIQPSASCDKILVIPSKVWQGQAFHLDRRNSPPNSLTPCLKIRNMFDPVMEIGDQWHLAIQEAILEKCSDNDGIVHIAVDKNSREGCVYVKCLSPEYAGKAFKALHGSWFDGKLVTVKYLRLDRYHHRFPQALTSNTPLKPSNKHMNSMSHLRLRTGLTNSQGSS | soluble
LFKPNYHFFPITGWMNDPNGLIFWKGKYHMFYQYNPRKPEWGNICWGHAVSDDLVHWRHLPVALYPDDETHGVFSGSAVEKDGKMFLVYTYYRDPTHNKGEKETQCVVMSENGLDFVKYDGNPVISKPPEEGTHAFRDPKVNRSNGEWRMVLGSGKDEKIGRVLLYTSDDLFHWKYEGAIFEDETTKEIDCPDLVRIGEKDILIYSITSTNSVLFSMGELKEGKLNVEKRGLLDHGTDFYAAQTFFGTDRVVVIGWLQSWLRTGLYPTKREGWNGVMSLPRELYVENNELKVKPVDELLALRKRKVFETAKSGTFLLDVKENSYEIVCEFSGEIELRMGNESEEVVITKSRDELIVDTTRSGVSGGEVRKSTVEDEATNRIRAFLDSCSVEFFFNDSIAFSFRIHPENVYNILSVKSNQVKLEVFELENIWL | soluble
LFQKLHQSLQVGEKEEDMYELLISSSMTTVMADAAWLEIRDNKGGLKAFQNSNIDEYDVFEIKKALRKNQVNISSEPQYIKDILSYPHTEKIKHLDYKSFLLIPLTSNNQLIGTLVLLKNLNDGFDKEMVDIIFTFVSQASISIKNFRLMSDAIQTERYQEELKIAKD | not soluble
LGASWHRPDKCCLGYQKRPLPQVLLSSWYPTSQLCSKPGVIFLTKRGRQVCADKSKDWVKKLMQQLPVTAR | soluble
LGGAQETAETMAKESMVLLKNTDDTLPLSGDESVLLTGPGVDSNGNNTRALMQHGGWTLGWQGASAGGPFPRQNLLEAELRARVGSLTHVPTSYENTTWWAGEGDGGNQQSDENGNFDFTAEQRSRVESAGPESDVVVVVLGEGTHNEGFGDRDELVLDESQQALLDTVVESTDDSAPIIGVMLAGSPRGSPETFSQLDALLFAGQPGSDGGVAIAETLVGEYNPSGKLPFSWPENVGTTPVQYTRYDPTSTGGTDNTAIYEYGHGLSYTDF | not soluble
LIGYVRVSTNDQNTDLQRNALNCAGCELIFEDKISGTKSERPGLKKLLRTLSAGDTLVVWKLDRLGRSMRHLVVLVEELRERGINFRSLTDSIDTSTPMGRFFFHVMGALAEMERELIVERTKAGLETARAQGRIGGRRPKLTPEQWAQAGRLIAAGTPRQKVAIIYDVGVSTLYKRFPAGDK | soluble

Sequence | soluble on expression in E. coli
LKDTLHNSELDDAERSSSDINNLFHSKPVKDISALDLNASLGNFQEIIIYDEHNNKLFETSNDNTVRVEPGYEHRYFDRVIKKRYKGIEYLIIKEPITTQDFKGYSLLIHSLENYDNIVKS | not soluble
LKQKVENLFNEKCGEALGLKQAVKVPFALFESFPEDFYVEGLPEGVPFRRPSTFGIPRLEKILRNKAKIKFIIKKPEMFETAIKES | soluble
LLLYIHGFNSSPLSMKANLMREYCAQHRPDIKVIVPQLPCFPEQAAQLLLDIVEQYKDDYNIGLVGSSLGGYMSTWLNAKYGFKAVVVNPAVKPYELLVDYLGEQTNPYTRETYTLEACHIDELKALDVQSIASPHSFWLLQQTEDEVLDYRQAVDKFAKAKQTVEQGGDHSFVGFERYPAKIIEFLE | not soluble
LNKWMKELSKTTSLDPVKPVDVLLTENDITIKNIRDMNRLRPFGTDFSRPIFEMDDLSVSSVKAIGQQKNHLKLTLGESNIAALFWQNGHLEPELQDEQPINILGSVQINEWNGNQSPQ | not soluble
LPKVSEDHLAARRSQILDGARRCFAEYGYDGATVRRLEEVTGLSRGAIFHHFKDKDGLFLALAHEDATRMADVVAHEGLVQVMRDMLAQPEQFDWLGTRLEIARRLRNDPDFRRSWSQRSAELTEATMARLARQKSAGRLRDDVPTDVLIGYLDLVLDGLVARIASGHAGDNLSAVLDLVEESVRRRD | not soluble
LSKVVIRRLPPTLTKEQLQEHLQPMPEHDYFEFFSNDTSLYPHMYARAYINFKNQEDIILFRDRFDGYVFLDNKGQEYPAIVEFAPFQKAA | soluble
LSNGQGSRVLHVVQTLYPFSSVTEEELNFEKGETMEVIEKPENDPEWWKCKNARGQVGLVPKNYVVVLSDGPALHPAH | soluble
LTLPGIANLRRLRVDDVAIPKVEIVAVPVDIGKEDLVAVFREHGFSRLPVYRETLDQPLGLVLLKDLALQHGFNGNGSFDLKTLLRPLLYAPPSMPIGVLLQKMQRERVHMALVIDEYGGVDGLVTIEDLIETVIGEIEDEHDEVEGPLWTLEKPGVYMAQSRTPLDEFEAEIGLRLRREEEDEEIDTLGGLV | not soluble
LVGSRREIAARNLELCFPEKSPAERERLLKENFASSGIAFFEMAMSWWWPKARLARLAHIEGLEHLREAQAQGEGVILMALHFTTLEIGAALLGQVHTIDGMYREHDNPVFDYVQRRGRERHNLDATAIEREDVRSMLKVLRGGRAIWYAPDQDYGAKQSLFVPLFGIPAATVTATTKFARLGRARVLPFTQSRLADGSGYRLTIHPPLEDFPGESEEADCLRINQWVERCVRQQPEQYLWAHRRFKTRPPGEAK | not soluble
LVSGVICAAIGAVALLGTQAVLKSTNSTEFCVSCHSMTHPQAEWEGSVHFSNRKGIRAECADCHVPQDSWHYVKAKVAAVKDVWHTFVTNKIPDQEAYEKHRLEMAQHVWQDMKETDSATCRSCHSFDAMVLAEQREAAQKMHKIAQETNQTCIDCHKGIAHFMPEMPADNSAALGELAKHGGKFNSADKVLYSLAMTSAKLAQGSEIRLLPFAELHNWQEEGDKIVAVVKGWQQVGAEGVIYSGLGQRIMVGLVDDAAKDKLTVHQVVNDKVTNSDWKEVSTSVSLPKAALTADIKSLNDFGSNLNQTHCSGCHAPISANHYTA | not soluble
LVSITDLQGRILYANDNFCAVSRYGREELVGQDHRIVNSGYHGKAYIRDMWRTISRGNIWQGEFCNRRKDGTRYWVDSTIVPLMDNAGKPRQYISIRRDITAQKEAEAQLARLKQAMDANSEMILLTDRAGRIIYANPALCRFSGMAEGELLGQSPSILDSPLADQETLAAMQEALQAGQPWSGRLLNRRRTGPAPHDAEDYWAEISTTPIHTDGNGLVGYVQIQHD | soluble
MAAAVFHMEILQLNDLSSRLNPLATKNVVLHVCLGVRYFPNSACKSYKDAQALCKDGDGMSLTGPAQSMEKAFFKESVPKVDKCVIFLDGLALNHDEPYNFEFEDETHDGTKNYRFNSEDPNSQTAPNYIVFEYHVSGAHVFDRS | not soluble
MAADPVFKEALQCIRCASCTNVCPVFQLVSGQVYGYIYNGGIGSVLTAFFNSLEDAVDPQSLCIGCRRCAEVCPAKINIPDLVLKLRERVVTKQGLEHHHHHH | not soluble
MAAEFVRKFQSFSESDKQWRAREEFIIRNLNRFEDESEIDQLLALSMVWANHVFMGCRYSNELLEKVCGMAEGIVVEDAPHFTTRDEIMKQRNQ | soluble
MAAIDAALKAGEKILSIYEDPKSDFEIERKADNSPLTIADRKAHEAIVAILNETPFPVLSEEGKHMDYAVRRGWDTLWIVDPLDGTKEFIKRNGEFTVNIALVQNAVPVMGVIYVPVKKELYFAVEGTGAYKCSGIVGLEDEGVTLQQMIEKSERMPLADARDHFIAVASRSHLTPETETYIADLKKKHGNVELISSGSSIKICLVAEGKADVYPRFAPTMEWDTAAGHAIARAAGMEVYQAGKEEPLRYNKEDLLNPWFIVEAKRER | soluble
MAAKVVLDFEKPLYELEEKLNEMRVYLKSGEVDSMSEGRAGLKREIESLEAKVESLRKTIYKNLTRWQKVQLARHPERPYTLDYIYMMMKDFVELSGDRNFGDDKAIIGGFARLEDESAGFSQSVMVIGHQKGRDTKSNLYRNFGMAQPEGYRKALRLMKLAEKFRKPVITLIDTPGAFPGIEAEERGQAEAIARNLYEMAALKVPVICVIIGEGASGGAIGIGVGDRILMAENAWYSVISPESCSSILWRSWNFKEQAAEALKLTADDLLAQGIIDRIVTEPLGGAHHNPEQMASTLKSILIEELQGLLTKDARTLVDERIAKFSGMGVWEES | not soluble
